Laboratory results published in the supplement of paper PMC7125110.
± gives the standard error. For part of these data: This sample holds only a part of the variants without activity.

B1: glmS ribozyme (parent)
chain: AUAAAAGCGCCAGAACUACAGAAAUGUAGUUGACGAGGAGGAGGUUUAUCGAAUUUUCGGCGGAUGCCUCCAAA

Assays:
Settings in all cases: with glucosamine-6-phosphate
glucosamine-6-phosphate [1] = variants of: B1; assay: kcat; higher = faster cleavage; RNA array
Outline: (§1)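 Tiles bearing barcoded ribozyme variants, transcribed in situ by E. coli RNA polymerase on sequenced MiSeq chips, were imaged over ~14 h at 37 °C using a hybridised Cy3 probe. Glucosamine-6-phosphate was supplied at 40 μM to 10 mM in HEPES/KCl/Mg(OAc)2 buffer. kobs came from one- or two-exponential decay fits to normalised per-tile medians, and weighted Michaelis–Menten fits then provided kcat and KM.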

glucosamine-6-phosphate [2] = variants of: B1; assay: KM; higher = weaker cofactor use; RNA array
Outline: as §1

glucosamine-6-phosphate [3] = variants of: B1; assay: self-cleavage kobs at 40 uM GlcN6P; higher = faster cleavage; RNA array
Outline: as §1

glucosamine-6-phosphate [4] = variants of: B1; assay: self-cleavage kobs at 160 uM GlcN6P; higher = faster cleavage; RNA array
Outline: as §1

glucosamine-6-phosphate [5] = variants of: B1; assay: self-cleavage kobs at 640 uM GlcN6P; higher = faster cleavage; RNA array
Outline: as §1

glucosamine-6-phosphate [6] = variants of: B1; assay: self-cleavage kobs at 2500 uM GlcN6P; higher = faster cleavage; RNA array
Outline: as §1

glucosamine-6-phosphate [7] = variants of: B1; assay: self-cleavage kobs at 10000 uM GlcN6P; higher = faster cleavage; RNA array
Outline: as §1

Variant	kcat (glucosamine-6-phosphate [1])	KM (glucosamine-6-phosphate [2])	self-cleavage kobs at 40 uM GlcN6P (glucosamine-6-phosphate [3])	self-cleavage kobs at 160 uM GlcN6P (glucosamine-6-phosphate [4])	self-cleavage kobs at 640 uM GlcN6P (glucosamine-6-phosphate [5])	self-cleavage kobs at 2500 uM GlcN6P (glucosamine-6-phosphate [6])	self-cleavage kobs at 10000 uM GlcN6P (glucosamine-6-phosphate [7])
AUAAAAGCGCCAGAACUACAGAAAUGUAGUUGACGAGGAGGCGGUUUAUCGAAUUUUCGGCGGAUGCCGCCAAA [A42C U69G]	0.00638 ± 0.0012 s⁻¹	129 ± 51 µM	0.00174 ± 0.00021 s⁻¹	0.00249 ± 0.00048 s⁻¹	0.00686 ± 0.0012 s⁻¹	0.00742 ± 0.0017 s⁻¹	0.00624 ± 0.00083 s⁻¹
AUAAAAGCGCCAGAACUACAGAAAUGUAGUUGACGAGGAGGGGGUUUAUCGAAUUUUCGGCGGAUGCAUCCAAA [A42G C68A]	1.2e-05 ± 4.3e-06 s⁻¹						
AUAAAAGCGCCAGAACUACAGAAAUGUAGUUGACGAGGAGGGGGUUUAUCGAAUUUUCGGCGGUUGCCUCCAAA [A42G A64U]	0.000207 ± 1.6e-05 s⁻¹	2880 ± 600 µM				0.000104 ± 2.3e-05 s⁻¹	0.000158 ± 2.2e-05 s⁻¹
AUAAAAGCGCCAGAACUACAGAAAUGUAGUUGACGAGGAGGCGGUAUAUCGAAUUUUCGGCGGAUGCCUCCAAA [A42C U46A]	< 1e-05 s⁻¹		< 1e-05 s⁻¹		< 1e-05 s⁻¹		
AUAAAAGCGCCAGAACUACAGAAAUGUAGUUGACGAGGAGGGGGUUUAUCGAAUUUGCGGCGGAUGCCUCCAAA [A42G U57G]	4.9e-05 ± 1.3e-06 s⁻¹	514 ± 77 µM	< 1e-05 s⁻¹	< 1e-05 s⁻¹		4.17e-05 ± 1.4e-05 s⁻¹	4.59e-05 ± 1.4e-05 s⁻¹
AUAAAAGCGCCAGAACUACAGAAAUGUAGUUGACGAGGAGGGGGUUUAUCGAAUUUUCGGCGGAUGCCUGCAAA [A42G C70G]	0.000261 ± 5.1e-05 s⁻¹	261 ± 120 µM	4.1e-05 ± 7.7e-06 s⁻¹	8.07e-05 ± 1.4e-05 s⁻¹	0.000216 ± 2.7e-05 s⁻¹	0.000414 ± 6.1e-05 s⁻¹	0.000223 ± 2.5e-05 s⁻¹
AUAAAAGCGCCAGAACUACAGAAAUGUAGUUGACGAGGAGGGGGUUUAUCGAAUUUUCGGCGGAUGCCUACAAA [A42G C70A]	0.000182 ± 4.2e-05 s⁻¹		4.72e-05 ± 8.8e-06 s⁻¹	6.35e-05 ± 1.1e-05 s⁻¹	0.000154 ± 1.6e-05 s⁻¹	0.000325 ± 3.7e-05 s⁻¹	0.000155 ± 1.5e-05 s⁻¹
AUAAAAGCGCCAGAACUACAGAAAUGUAGUUGACGAGGAGGGGGUUUAUCGAAUUUUAGGCGGAUGCCUCCAAA [A42G C58A]	0.00048 ± 3.7e-05 s⁻¹	2480 ± 390 µM			9.53e-05 ± 3.4e-05 s⁻¹	0.000279 ± 0.00013 s⁻¹	0.000379 ± 9.4e-05 s⁻¹
AUAAAAGCGCCAGAACUACAGAAAUGUAGUUGACGAGGAGGGGCUUUAUCGAAUUAUCGGCGGAUGCCUUCAAA [A42G G44C U56A C70U]	< 1e-05 s⁻¹			< 1e-05 s⁻¹		< 1e-05 s⁻¹	
AUAAAAGCGCCAGAACUACAGAAAUGUAGUUGACGAGGAGGUGGUUUAUCGGAUUUUCGGCGGAUGCCUCCAAA [A42U A52G]	1.76e-05 ± 2.4e-06 s⁻¹			< 1e-05 s⁻¹			1.62e-05 ± 7.9e-06 s⁻¹
AUAAAAGCGCCAGAACUACAGAAAUGUAGUUGACGAGGAGGUGGUUUAUCGAAUUUUCGGCGGAUGCUUCCAAA [A42U C68U]	0.000347 ± 1.8e-05 s⁻¹	1360 ± 230 µM			0.000108 ± 2.4e-05 s⁻¹	0.000254 ± 5.6e-05 s⁻¹	0.000302 ± 3e-05 s⁻¹
AUAAAAGCGCCAGAACUACAGAAAUGUAGUUGACGAGGAGGCGGUUUAUCGAAUUUUCGGCGGAUUCCUCCAAA [A42C G66U]	1.53e-05 ± 2e-06 s⁻¹						
AUAAAAGCGCCAGAACUACAGAAAUGUAGUUGACGAGGAGGUGGUUUAUCGAAUUUUCGGCGGAUGUCUCCAAA [A42U C67U]	0.000151 ± 1.3e-05 s⁻¹	1090 ± 300 µM			5.2e-05 ± 6.3e-06 s⁻¹	0.000127 ± 1.2e-05 s⁻¹	0.000131 ± 8.5e-06 s⁻¹
AUAAAAGCGCCAGAACUACAGAAAUGUAGUUGACGAGGAGGGGGUUUAUCGACUUUUCGGCGGAUGCCUCCAAA [A42G A53C]	0.00933 ± 0.0027 s⁻¹	1540 ± 610 µM	0.000286 ± 5.1e-05 s⁻¹	0.000666 ± 0.00018 s⁻¹	0.00271 ± 0.00065 s⁻¹	0.0112 ± 0.0032 s⁻¹	0.0076 ± 0.0015 s⁻¹
AUAAAAGCGCCAGAACUACAGAAAUGUAGUUGACGAGGAGGGGGUCUAUCGAAUUUUCGGCGGAUGCCUCCAAA [A42G U46C]	0.00159 ± 0.00025 s⁻¹	1020 ± 260 µM	5.01e-05 ± 1.5e-05 s⁻¹	0.000237 ± 4.5e-05 s⁻¹	0.000597 ± 9.9e-05 s⁻¹	0.00137 ± 0.00023 s⁻¹	0.00122 ± 0.00028 s⁻¹
AUAAAAGCGCCAGAACUACAGAAAUGUAGUUGACGAGGAGGGGGUGUAUCGAAUUUUCGGCGGAUGCCUCCAAA [A42G U46G]	0.017 ± 0.0083 s⁻¹		0.000254 ± 6.6e-05 s⁻¹	0.000694 ± 0.00017 s⁻¹	0.00167 ± 0.00038 s⁻¹	0.0074 ± 0.0015 s⁻¹	0.0115 ± 0.0033 s⁻¹
AUAAAAGCGCCAGAACUACAGAAAUGUAGUUGACGAGGAGUAGGUUUAUCGAAUUUUCGGCGGAUGCCCCCAAA [G41U U69C]	4.52e-05 ± 7.4e-06 s⁻¹					3.82e-05 ± 1.3e-05 s⁻¹	
